# Experimental data taken from patent US12479928B2, “Anti-cancer peptide” (Minerva Biotechnologies Corporation, priority 2014, dated 2025).
# T1: PSMGFR peptide (MUC1* extracellular domain) (Homo sapiens, UniProt P15941)
# T1 construct: The PSMGFR peptide bearing a C-terminal Cysteine (PSMGFR-Cys) was covalently coupled to BSA; made in house; host or cells: E. coli (NME7-AB)
# T1 sequence (P15941 1110-1154 limits assumed) 1: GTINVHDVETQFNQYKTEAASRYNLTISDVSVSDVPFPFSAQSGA
# T1 sequence (Q9Y5B8 92-376 partner limits assumed): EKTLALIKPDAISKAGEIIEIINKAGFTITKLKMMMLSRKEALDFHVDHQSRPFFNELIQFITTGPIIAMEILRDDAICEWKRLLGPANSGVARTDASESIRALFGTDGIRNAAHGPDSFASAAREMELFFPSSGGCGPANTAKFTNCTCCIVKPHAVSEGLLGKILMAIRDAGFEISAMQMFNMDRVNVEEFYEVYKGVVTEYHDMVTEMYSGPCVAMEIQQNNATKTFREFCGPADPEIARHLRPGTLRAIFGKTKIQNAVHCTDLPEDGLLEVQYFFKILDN
# T1 sequence (P15941 1110-1154 limits assumed) 3: T1 sequence (P15941 1110-1154 limits assumed) 1
# B1: NME7-AB: recombinant human NME7 devoid of the DM10 domain, NDPK A and B domains, about 33 kDa monomer (protein)
# chain: MEKTLALIKPDAISKAGEIIEIINKAGFTITKLKMMMLSRKEALDFHVDHQSRPFFNELIQFITTGPIIAMEILRDDAICEWKRLLGPANSGVARTDASESIRALFGTDGIRNAAHGPDSFASAAREMELFFPSSGGCGPANTAKFTNCTCCIVKPHAVSEGLLGKILMAIRDAGFEISAMQMFNMDRVNVEEFYEVYKGVVTEYHDMVTEMYSGPCVAMEIQQNNATKTFREFCGPADPEIARHLRPGTLRAIFGKTKIQNAVHCTDLPEDGLLEVQYFFKILDN
# Columns and labels:
# [1] = system: Human stem cells (iPS cat #SC101a-1); assay: Human stem cell growth and pluripotency in NME7-AB or NM23-H1 dimers; format: cell-based; conditions: for pluripotent stem cell growth / differentiation: 8 nM in Minimal Stem Cell Media
# Protocol: For testing recombinant NME7-AB for ability to maintain pluripotency and inhibit differentiation, a soluble variant of NME7, NME7-AB, was generated and purified. Human stem cells (iPS cat #SC101a-1, System Biosciences) were grown per the manufacturer's directions in 4 ng/ml bFGF over a layer of mouse fibroblast feeder cells for four passages. These source stem cells were then plated into 6-well cell culture plates (Vita™, Thermo Fisher) that had been coated with 12.5 ug/well of a monoclonal anti-MUC1* antibody, MN-C3. Cells were plated at a density of 300,000 cells per well. The base media was Minimal Stem Cell Media consisting of: 400 ml DME/F12/GlutaMAX I (Invitrogen #10565-018), 100 ml Knockout Serum Replacement (KO-SR, Invitrogen #10828-028), 5 ml 100×MEM Non-essential Amino Acid Solution (Invitrogen #11140-050) and 0.9 ml (0.1 mM) β-mercaptoethanol (55 mM stock, Invitrogen #21985-023). The base media can be any media. In a preferred embodiment, the base media is free of other growth factors and cytokines. To the base media was added either 8 nM of NME7-AB or 8 nM NM23-H1 refolded and purified as stable dimers. Media was changed every 48 hours and due to accelerated growth, had to be harvested and passaged at Day 3 post-plating.
# Cell counts at the first harvest verified that culture in NME7 produced 1.4-times more cells than culture in NM23-H1 dimers.
# [2] = system: SK-OV3 ovarian cancer cell line; assay: RT-PCR of metastatic markers after culture in NME7-AB, SK-OV3; format: cell-based, human; conditions: 72 or 144 hours
# Description: (§1) FIGS. 37A-37C show graphs of RT-PCR measurements of metastatic markers in cancer cells after being cultured in a serum-free media containing NME7-AB compared to the standard media.
# [3] = system: OV-90 ovarian cancer cell line; assay: RT-PCR of metastatic markers after culture in NME7-AB, OV-90; format: cell-based, human; conditions: 72 or 144 hours
# Description: as §1
# [4] = target: T1, PSMGFR peptide (MUC1* extracellular domain); assay: Sandwich ELISA: NME7-AB dimerizes MUC1* extra cellular domain peptide; format: binding
# Protocol: The PSMGFR peptide bearing a C-terminal Cysteine (PSMGFR-Cys) was covalently coupled to BSA using Imject Maleimide activated BSA kit (Thermo Fisher). PSMGFR-Cys coupled BSA was diluted to 10 ug/mL in 0.1M carbonate/bicarbonate buffer pH 9.6 and 50 uL was added to each well of a 96 well plate. After overnight incubation at 4° C., the plate was washed twice with PBS-T and a 3% BSA solution was added to block remaining binding site on the well. After 1 h at RT the plate was washed twice with PBS-T and NME7, diluted in PBS-T+1% BSA, was added at different concentrations. After 1 h at RT the plate was washed 3× with PBS-T and anti-NM23-H7 (B-9, Santa Cruz Biotechnology), diluted in PBS-T+1% BSA, was added at 1/500 dilution. […] After 1 h at RT the plate was washed 3× with PBS-T and binding of NME7 was measured at 415 nm using ABTS solution (Pierce). […]
# After 1 h at RT the plate was washed 3× with PBS-T and HisTagged PSMGFR peptide (PSMGFR-His) or biotinylated PSMGFR peptide (PSMGFR-biotin), diluted in PBS-T+1% BSA, was added at different concentration. […] After 1 h at RT the plate was washed 3× with PBS-T and binding of PSMGFR peptide to NME7 already bound to another PSMGFR peptide (which could not signal by anti-His antibody or by streptavidin) coupled BSA was measured at 415 nm using a ABTS solution (Pierce).
molecule,measurement,setting,value
B1,pluripotent stem cell growth / differentiation,[1],"fully supported human stem cell growth, pluripotency, and resisted differentiation"
same,pluripotent stem cell growth / differentiation,[1]; listed as NME7,no differentiation even when 100% confluent
same,cell number relative to culture in NM23-H1 dimers,"[1]; 8 nM, cell counts at first harvest",1.4 times
same,metastatic marker expression after culture in NME7-AB,[2],"increase expression of metastatic markers CHD1, SOX2 and NME7-X1"
same,metastatic marker expression after culture in NME7-AB,[3],increase expression of metastatic markers CXCR4 and NME7-X1
same,simultaneous binding of PSMGFR peptides,[4],simultaneously binds to two PSMGFR peptides
